Measured values reported in patent publication US5208158A, “Oxidation stable detergent enzymes” (Novo Nordisk A/S, priority 1990, dated 1993).
Changes are numbered by the printed parent chain. Names and notes keep the numbering of the source.

B1: Subtilisin-309 (wild type) (Lederbergia lenta) (protein)
chain: AQSVPWGISRVQAPAAHNRGLTGSGVKVAVLDTGISTHPDLNIRGGASFVPGEPSTQDGNGHGTHVAGTIAALNNSIGVLGVAPSAELYAVKVLGASGSGSVSSIAQGLEWAGNNGMHVANLSLGSPSPSATLEQAVNSATSRGVLVVAASGNSGAGSISYPARYANAMAVGATDQNNNRASFSQYGAGLDIVAPGVNVQSTYPGSTYASLNGTSMATPHVAGAAALVKQKNPSWSNVQIRNHLKNTATSLGSTNLYGSGLVNAEAATR
B2: Subtilisin-309 variant Subtilisin-309-M222C (Lederbergia lenta; M216C) (protein)
chain: B1 chain with M216C
notes: made in house

Experiments:
Type in all cases: biochemical
[1] = biological target: T1, Subtilisin-309 variant Subtilisin-309-M222C (Lederbergia lenta, UniProt P29600, M216C); test: Titration of the enzyme with phenyl-Hg-Cl; details: ratio phenyl-Hg-Cl/enzyme exceeds 1
T1 construct: made in house
T1 sequence (P29600 1-269 M216C): B1 chain with M216C
From the text: (§1) As a further control, the enzyme was titrated with phenyl-Hg-Cl. When subtilisin-309-M222C is modified with phenyl-Hg-Cl, the activity decreases. When the ratio phenyl-Hg-Cl/WT exceeds 1, the activity constantly remains 10% of the activity of the non-modified enzyme, corresponding to 1 group per enzyme being modified.

[2] = biological target: T2, Subtilisin-309 variant Subtilisin-309-M222C-SM (M222C chemically modified with MMTS) (Lederbergia lenta, UniProt P29600, M216C); test: Titration of the enzyme with phenyl-Hg-Cl; details: excess of phenyl-Hg-Cl relative to enzyme of 2.5
T2 construct: made in house
T2 sequence (P29600 1-269 M216C): B1 chain with M216C
From the text: as §1

[3] = substrate: C[C@H](NC(=O)CCC(=O)O)C(=O)N[C@@H](C)C(=O)N1CCC[C@H]1C(=O)N[C@@H](Cc1ccccc1)C(=O)Nc1ccc([N+](=O)[O-])cc1; test: Kinetic characterization, cleavage of Suc-Ala-Ala-Pro-Phe-pNA monitored at 410 nm; details: other: 50 mM Bicine, 2 mM CaCl2, 0.1 M KCl, pH 8.5, 25° C., substrate 0.2 to 6.5 mM
Protocol: The proteolytic activity can be monitored spectrophotometrically at 25° C., following the degradation of the peptide substrates Suc-Ala-Ala-Pro-Phe-pNA (Suc=Succinyl and pNA=p-nitro-anilid) or DMC (dimethyl-casein), and subsequent calculation of the kinetic parameters kcat. and KM.
For kinetic characterization, the savinase enzymes were assayed in:
50 μl X mM Suc-Ala-Ala-Pro-Phe-pNA in DMF
wherein the cleavage of substrate between Phe and pNA (p-nitro-anilid) is monitored spectrophotometrically at 410 nm, Δε=8500M^-1 cm^-1. The enzymatic concentrations are determined from the absorption at 280 nm, using Δε28 determined from the amino acid composition, Δε280 =23217M^-1 cm^-1.
The kinetic parameters kcat and KM are determined from a direct fit of the initial velocities at 7 concentrations of substrate to the Michaelis Menten equation. The […], X, is varied from 4 to 131 mM, so that the concentration of the substrate in assay varies from 0.2 to 6.5 mM. Thus selected around the KM value of the enzymes.

Row | Molecule | activity remaining, of the activity of the non-modified enzyme [1] | activity change on reaction with phenyl-Hg-Cl [2] | Km [3] | kcat [3] | kcat/Km [3]
1 | [Cl][Hg][c]1ccccc1 [phenyl-Hg-Cl] | 10% | no activity change is observed |  |  | 
2 | B1 |  |  | 1760 µM | 91.2 ± 1.0 s⁻¹ | 52 S^-1 mM^-1
3 | B2 |  |  | 1820 µM | 43.2 ± 0.03 s⁻¹ | 23.8 S^-1 mM^-1
